Our source for the Kd values is US20250129169A1 (Stanford University, published 2025).

Assay [1] deals with T1, Human γC ECD (human, UniProt P31785 23-262, biotinylated (site not stated)).
T1 construct: extracellular domain; Biotinylated and held on a streptavidin chip for SPR; also called common gamma; biotinylated human γC ECD
T1 sequence (looked up): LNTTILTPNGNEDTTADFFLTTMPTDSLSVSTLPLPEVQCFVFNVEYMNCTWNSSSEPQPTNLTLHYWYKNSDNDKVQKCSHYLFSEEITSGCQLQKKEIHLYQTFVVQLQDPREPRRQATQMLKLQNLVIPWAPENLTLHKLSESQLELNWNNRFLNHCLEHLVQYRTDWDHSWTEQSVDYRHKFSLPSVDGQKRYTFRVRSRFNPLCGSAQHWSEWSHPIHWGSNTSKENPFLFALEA
Nature of the assay: SPR, steady-state binding affinity (drawn table). The method, then: (§1) FIGS. 2A-2H show data on SPR validation of IL-2Rβ- and γc-VHHs and agonist screening in YT-1 cells. (A) Biotinylated human IL-2Rβ ECD was immobilized on a streptavidin (SA) sensor chip, and varying concentrations of IL-2Rβ VHH were applied to determine binding parameters using SPR. Sensorgrams are shown on the left, and steady state binding is plotted on the right. Binding affinities (KD) were determined by fitting to steady state response values. (B) Biotinylated human γC ECD was immobilized on a SA chip, and varying concentrations of γc VHH were flowed over the chip to determine binding. […] (C) Steady-state binding affinities between VHH/scFv and IL-2R, as determined by SPR. Values for scFv affinities are derived from patent US20160367664A1 (Wang et al., 2016). (D) Table of pSTAT5 Eₘₐₓ values for the indicated VHH pairings. (E) Tuning IL-2 activity via generation of acid-base VHH zipper pairings. (F) Tuning IL-2 activity via generation of 2:1 β:γc or γc:β stoichiometries. VHH binding modules are linked together in a tripartite (β-γc-β or γc-β-γc) manner. Graph axes are represented as in (E). (G) Dose-response relationship of pSTAT5 geometric mean flurorescence intensities (gMFI) of selected agonists. (H) Corresponding histograms showing STAT5 activity in YT-1 cells treated with human IL-2 vs. IL-2 surrogate agonists at saturating concentration.
(Surface plasmon resonance follows binding to a sensor surface in real time, without labels.)

The target of assay [2] is T1, Human γC ECD. Nature of the assay: SPR; biotinylated human γc ECD on streptavidin chip, VHH as analyte; KD from fit to steady-state responses [Cont.]. The procedure:
as §1

Assay [3] deals with T1, Human γC ECD. Nature of the assay: drawn table of affinities; the scFv value is derived from patent US20160367664A1 (Wang et al., 2016), not measured in this filing.

B1: γc-VHH3 (VHH)
VHH: QVQLQESGGGSVQAGGSLRLSCAASGYTYSKNWYMGWFRQTPGKEREGVAVIAYDDWPTYADSVKGRFTISKDNTKNTLYLQMNSLKPEDTAMYYCAARQLGGDYCYFPNLSRFCYNYWGQGTQVTVSS
notes: also called γC nanobody clone 3
A word on the Kd: it is the equilibrium constant for the complex coming apart. A higher Kd goes with lower affinity. Take B1: the values for the Kd with Human γC ECD [1] and with Human γC ECD [2] were 7 nM and 6.7 nM, respectively.

B2: γ scFv2 (P2B9) (scFv)
scFv (VH-linker-VL): QVQLQESGPGLVKPSETLSLTCTVSGGSISSSSYYWGWIRQPPGKGLEWIGSIYYSGSTYYNPSLKSRVTISVDTSKNQFSLKLSSVTAADTAVYYCAGDILTGYALDYWGQGTLVTVSSGGGGSGGGGSGGGGSSYELTQPPSMSVSPGQTARITCSGDALPKQFAFWYQQKPGQAPVLVIYKDTERPSGIPERFSGSSSGTTVTLTITGVQAEDEADYYCQSPDSSGTVEVFGGGTKLTVL
notes: also called γc-scFv2 (P2B9)
For B2, in the assay with Human γC ECD [3], binding was characterised by a dissociation constant (Kd) of 79 nM.

B3: γc-VHH4 (VHH)
VHH: QVQLQESGGGSVQAGGSLRLSCTASGFTFNEANHMGWYRQAPGNECELVSTISSDGTTYYPDSVKGRFTISQDNAKKTAFLQMNSLKPEDTAVYYCAADQSRRGSLCLGQGTQVTVSS
notes: also called γC nanobody clone 4
Regarding B3, the Kd with Human γC ECD [1] is 20 nM; with Human γC ECD [2] it was 19.7 nM.

B4: γc-VHH6 (VHH)
VHH: QVQLQESGGGSVQAGGSLRLSCAASGYTYRDYYMGWFRQAPGREREGVASIYTRGSREGSTRYSSSVEGRFTITLDTAKNTLYLQMNSLKPEDTAMYYCAADDRTWLPRVQLGGPRENEYNYWGQGTQVTVSS
notes: also called γC nanobody clone 6
For B4, the Kd with Human γC ECD [1] came out at 69 nM; with Human γC ECD [2] it was 68.6 nM.
